Assay results from FireProtDB (doi:10.1006/jmbi.1995.0616).

B1: Subtilisin-chymotrypsin inhibitor-2A, P01053 (parent)
chain: MSSVEKKPEGVNTGAGDRHNLKTEWPELVGKSVEEAKKVILQDKPEAQIIVLPVGTIVTMEYRIDRVRLFVDKLDNIAQVPRVG

Variants of: B1
Conditions: Hordeum vulgare; pH 6.25; 25 °C; GdnHCl; Fluorescence; MES 50 mM; reversible: yes; structure 2CI2; whole UniProt chain shown

Row | Variant | ddG of mutation (higher = less stable) [kcal/mol] | denaturant m value [kcal/mol/M] | denaturant midpoint (higher = more stable) [M] | unfolding free energy [kcal/mol]
1 | MSSVEKKPEGVNTGAGDRHNLKTEWPELVGKSVDEAKKVILQDKPEAQIIVLPVGTIVTMEYRIDRVRLFVDKLDNIAQVPRVG [E34D] | 0.77 | 1.83 | 3.73 | 6.83
2 | MSSVEKKPEGVNTGAGDRHNLKTEWPELVGKSVQEAKKVILQDKPEAQIIVLPVGTIVTMEYRIDRVRLFVDKLDNIAQVPRVG [E34Q] | 0.4 | 1.87 | 3.85 | 7.2
3 | MSSVEKKPEGVNTGAGDRHNLKTEWPELVGKSVNEAKKVILQDKPEAQIIVLPVGTIVTMEYRIDRVRLFVDKLDNIAQVPRVG [E34N] | 0.28 | 2.01 | 3.64 | 7.32
4 | MSSVEKKPEGVNTGAGDRHNLKTEWPELVGKSVEEAKKVILQDKPEAQIIVLPVGTIATMEYRIDRVRLFVDKLDNIAQAPRVG [V58A V80A] | 3.78 | 2.19 | 1.75 | 3.82
5 | MSSVEKKPEGVNTGAGDRHNLKTEWPELVGKSVEEAKKVILQDKPEAQIIVVPVGTIVTMEYRIDRVRLLVDKLDNIAQVPRVG [L52V F70L] | 1.08 | 2.37 | 2.75 | 6.52
6 | MSSVEKKPEGVNTGAGDRHNLKTEWPELVGKSVEEAKKVILQDKPEAQIIVVPVGTIVTMEYRIDRVRLAVDKLDNIAQVPRVG [L52V F70A] | 3.26 | 1.94 | 2.24 | 4.34
7 | MSSVEKKPEGVNTGAGDRHNLKTEWPELVGKSVEEAKKVILQDKPEAQIIVVPVGTIVTMEYRIDRVRLFVDKLDNIAQVPRVG [L52V] | 1.02 | 1.76 | 3.74 | 6.58
8 | MSSVEKKPEGVNTGAGDRHNLKTEWPELVGKSVEEAKKVILQDKPEAQIIVIPVGTIVTMEYRIDRVRLFVDKLDNIAQVPRVG [L52I] | 1.01 | 1.7 | 3.87 | 6.59
9 | MSSVEKKPEGVNTGAGDRHNLKTEWPELVGKSVEEAKKVILQDKPEAQIIVAPVGTIVTMEYRIDRVRLFVDKLDNIAQVPRVG [L52A] | 1.74 | 2.11 | 2.78 | 5.86
10 | MSSVEKKPEGVNTGAGDRHNLKTEWPELVGKSVEEAKKVILQDKPEAQIIVLPVGTAVTMEYRIDRVRLFVDKLDNIAQVPRVG [I57A] | 1.28 | 1.59 | 3.98 | 6.32
11 | MSSVEKKPEGVNTGAGDRHNLKTEWPELVGKSVEEAKKAILQDKPEAQIIVLPVGTIVTMEYRIDRVRLFVDKLDNIAQVPRVG [V39A] | 0.06 | 2.01 | 3.75 | 7.54
12 | MSSVEKKPEGVNTGAGDRHNLKTEWPELVGKSVEEAKKVILQAKPEAQIIVLPVGTIVTMEYRIDRVRLFVDKLDNIAQVPRVG [D43A] | 1.05 | 1.87 | 3.51 | 6.55
13 | MSSVEKKPEGVNTGAGDRHNLKTEWAELVGKSVEEGKKVILQDKPEAQIIVLPVGTIVTMEYRIDRVRLFVDKLDNIAQVPRVG [P26A A36G] | 1.3 | 2.39 | 2.64 | 6.3
14 | MSSVEKKPEGVNTGAGDRHNLKTEWPELVGKSVEEAKKVILADKPEAQIIVLPVGTIVTMEYRIDRVRLFVDKLDNIAQVPRVG [Q42A] | 0.54 | 1.77 | 3.99 | 7.06
15 | MSSVEKKPEGVNTGAGDRHNLKTEWPELVGKSVEEAKKVILGDKPEAQIIVLPVGTIVTMEYRIDRVRLFVDKLDNIAQVPRVG [Q42G] | 0.92 | 1.81 | 3.69 | 6.68
16 | MSSVEKKPEGVNTGAGDRHNLKTEWPELVGKSVEEAKGVILQDKPEAQIIVLPVGTIVTMEYRIDRVRLFVDKLDNIAQVPRVG [K38G] | 1.58 | 1.73 | 3.49 | 6.02
17 | MSSVEKKPEGVNTGAGDRHNLKTEWPELVGKSVEEAKAVILQDKPEAQIIVLPVGTIVTMEYRIDRVRLFVDKLDNIAQVPRVG [K38A] | 0.99 | 1.61 | 4.11 | 6.61
18 | MSSVEKKPEGVNTGAGDRHNLKTEWPELVGKSVEEAKKVILQDAPEAQIIVLPVGTIVTMEYRIDRVRLFVDKLDNIAQVPRVG [K44A] | 1.85 | 1.57 | 3.67 | 5.75
19 | MSSVEKKPEGVNTGAGDRHNLKTEWPELVGKSVEEAKKVILQDKPEAQIIVLPVGTIATMEYRIDRVRLFVDKLDNIAQVPRVG [V58A] | 0.67 | 2.14 | 3.24 | 6.93
20 | MSSVEKKPEGVNTGAGDRHNLKTEWPELVGKSVEEAKKVILQDKPEAQIIVVPVGTIATMEYRIDRVRLFVDKLDNIAQVPRVG [L52V V58A] | 1.93 | 1.86 | 3.05 | 5.67
21 | MSSVEKKPEGVNTGAGDRHNLKTEWPELVGKSVEEAKKVILQDKPEAQIIVAPVGTIATMEYRIDRVRLFVDKLDNIAQVPRVG [L52A V58A] | 2.95 | 1.96 | 2.37 | 4.65
22 | MSSVEKKPEGVNTGAGDRHNLKTEWPELVGKSVEEAKKVILQDKPAAQIIVLPVGTIVTMEYRIDRVRLFVDKLDNIAQVPRVG [E46A] | 0.78 | 1.78 | 3.83 | 6.82
23 | MSSVEKKPEGVNTGAGDRHNLKTEWPELVGKAVEEAKKVILQDKPEAQIIVLPVGTIVTMEYRIDRVRLFVDKLDNIAQVPRVG [S32A] | 1.02 | 1.86 | 3.54 | 6.58
24 | MSSVEKKPEGVNTGAGDRHNLKTEWPELVGKGVEEAKKVILQDKPEAQIIVLPVGTIVTMEYRIDRVRLFVDKLDNIAQVPRVG [S32G] | 0.06 | 2.1 | 3.59 | 7.54
25 | MSSVEKKPEGVNTGAGDRHNLKTEWPELVGKGVAAAKKVILQDKPEAQIIVLPVGTIVTMEYRIDRVRLFVDKLDNIAQVPRVG [S32G E34A E35A] | 0.81 | 2.15 | 3.16 | 6.79
26 | MSSVEKKPEGVNTGAGDRHNLKTEWPELVGKSVEEAKKVILQDKPEAMIIVLPVGTIVTLEYRIDRVRLFVDKLDNIAQVPRVG [Q48M M60L] | 0.18 | 1.78 | 4.16 | 7.42
